# B1: KCNK9 (parent)
# chain: DVPDLQSVCSCTCYRSQDYGGRSV
# Variants of: B1
# Test: protein stability index of a GFP-peptide fusion (GPS, HEK-293T) (PSI 1-6); higher = more stable
# Conditions: c terminus: a fixed tail appended
# 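Note: lentivirally expressed fusions sorted by FACS into six bins by GFP to DsRed ratio, PSI derived from sequencing read proportions per bin multiplied by bin number.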
row,Variant,protein stability index
1,DVPDLQSVMSCTCYRSQDYGGRSV [C9M],2.06
2,DVPDLQSVQSCTCYRSQDYGGRSV [C9Q],2.03
3,DVPDLQSVSSCTCYRSQDYGGRSV [C9S],3.05
4,DVPDLQSVFSCTCYRSQDYGGRSV [C9F],2.01
5,DVPDLQSVPSCTCYRSQDYGGRSV [C9P],1.67
6,DVPDLQSVASCTCYRSQDYGGRSV [C9A],2.7
7,DVPDLQSVNSCTCYRSQDYGGRSV [C9N],2.66
8,DVPDLQSVDSCTCYRSQDYGGRSV [C9D],3.26
9,DVPDLQSVHSCTCYRSQDYGGRSV [C9H],1.71
10,DVPDLQSVISCTCYRSQDYGGRSV [C9I],2.38
11,DVPDLQSVYSCTCYRSQDYGGRSV [C9Y],1.82
12,DVPDLQSVESCTCYRSQDYGGRSV [C9E],2.37
13,DVPDLQSVLSCTCYRSQDYGGRSV [C9L],2.16
14,DVPDLQSVTSCTCYRSQDYGGRSV [C9T],1.89
15,DVPDLQSVKSCTCYRSQDYGGRSV [C9K],2.29
16,DVPDLQSVGSCTCYRSQDYGGRSV [C9G],1.75
17,DVPDLQSVVSCTCYRSQDYGGRSV [C9V],2.18
18,IVPDLQSVCSCTCYRSQDYGGRSV [D1I],1.33
19,CVPDLQSVCSCTCYRSQDYGGRSV [D1C],1.04
20,NVPDLQSVCSCTCYRSQDYGGRSV [D1N],1.29
21,RVPDLQSVCSCTCYRSQDYGGRSV [D1R],1.62
22,VVPDLQSVCSCTCYRSQDYGGRSV [D1V],1.51
23,MVPDLQSVCSCTCYRSQDYGGRSV [D1M],1.54
24,LVPDLQSVCSCTCYRSQDYGGRSV [D1L],2.59

row,Variant,protein stability index
1,GVPDLQSVCSCTCYRSQDYGGRSV [D1G],1.26
2,TVPDLQSVCSCTCYRSQDYGGRSV [D1T],1.86
3,KVPDLQSVCSCTCYRSQDYGGRSV [D1K],2.23
4,QVPDLQSVCSCTCYRSQDYGGRSV [D1Q],2.87
5,EVPDLQSVCSCTCYRSQDYGGRSV [D1E],1.44
6,AVPDLQSVCSCTCYRSQDYGGRSV [D1A],1.54
7,PVPDLQSVCSCTCYRSQDYGGRSV [D1P],2.33
8,HVPDLQSVCSCTCYRSQDYGGRSV [D1H],3.67
9,SVPDLQSVCSCTCYRSQDYGGRSV [D1S],2.29
10,DYPDLQSVCSCTCYRSQDYGGRSV [V2Y],1.82
11,DAPDLQSVCSCTCYRSQDYGGRSV [V2A],1.84
12,DDPDLQSVCSCTCYRSQDYGGRSV [V2D],1.78
13,DEPDLQSVCSCTCYRSQDYGGRSV [V2E],2.93
14,DHPDLQSVCSCTCYRSQDYGGRSV [V2H],1.67
15,DSPDLQSVCSCTCYRSQDYGGRSV [V2S],2.19
16,DGPDLQSVCSCTCYRSQDYGGRSV [V2G],1.5
17,DFPDLQSVCSCTCYRSQDYGGRSV [V2F],1.69
18,DTPDLQSVCSCTCYRSQDYGGRSV [V2T],2.57
19,DWPDLQSVCSCTCYRSQDYGGRSV [V2W],1.68
20,DRPDLQSVCSCTCYRSQDYGGRSV [V2R],2.2
21,DCPDLQSVCSCTCYRSQDYGGRSV [V2C],2.07
22,DKPDLQSVCSCTCYRSQDYGGRSV [V2K],2.43
23,DPPDLQSVCSCTCYRSQDYGGRSV [V2P],1.55
24,DQPDLQSVCSCTCYRSQDYGGRSV [V2Q],1.59

row,Variant,protein stability index
1,DMPDLQSVCSCTCYRSQDYGGRSV [V2M],2.31
2,DIPDLQSVCSCTCYRSQDYGGRSV [V2I],1.78
3,DNPDLQSVCSCTCYRSQDYGGRSV [V2N],2.7
4,DVPDLQRVCSCTCYRSQDYGGRSV [S7R],1.57
5,DVPDLQPVCSCTCYRSQDYGGRSV [S7P],1.46
6,DVPDLQEVCSCTCYRSQDYGGRSV [S7E],1.81
7,DVPDLQAVCSCTCYRSQDYGGRSV [S7A],1.64
8,DVPDLQMVCSCTCYRSQDYGGRSV [S7M],1.84
9,DVPDLQIVCSCTCYRSQDYGGRSV [S7I],2.29
10,DVPDLQNVCSCTCYRSQDYGGRSV [S7N],1.38
11,DVPDLQFVCSCTCYRSQDYGGRSV [S7F],2.32
12,DVPDLQYVCSCTCYRSQDYGGRSV [S7Y],2.07
13,DVPDLQGVCSCTCYRSQDYGGRSV [S7G],1.81
14,DVPDLQWVCSCTCYRSQDYGGRSV [S7W],2.48
15,DVPDLQCVCSCTCYRSQDYGGRSV [S7C],1.66
16,DVPDLQTVCSCTCYRSQDYGGRSV [S7T],2.03
17,DVPDLQVVCSCTCYRSQDYGGRSV [S7V],1.56
18,DVPDLQKVCSCTCYRSQDYGGRSV [S7K],1.96
19,DVPDLQDVCSCTCYRSQDYGGRSV [S7D],2.2
20,DVPDLQHVCSCTCYRSQDYGGRSV [S7H],1.92
21,DVPDLQQVCSCTCYRSQDYGGRSV [S7Q],2.29
22,DVPDVQSVCSCTCYRSQDYGGRSV [L5V],2.4
23,DVPDHQSVCSCTCYRSQDYGGRSV [L5H],1.82
24,DVPDQQSVCSCTCYRSQDYGGRSV [L5Q],2.38

row,Variant,protein stability index
1,DVPDFQSVCSCTCYRSQDYGGRSV [L5F],2.15
2,DVPDDQSVCSCTCYRSQDYGGRSV [L5D],2.42
3,DVPDRQSVCSCTCYRSQDYGGRSV [L5R],1.77
4,DVPDSQSVCSCTCYRSQDYGGRSV [L5S],1.41
5,DVPDGQSVCSCTCYRSQDYGGRSV [L5G],1.65
6,DVPDKQSVCSCTCYRSQDYGGRSV [L5K],1.9
7,DVPDTQSVCSCTCYRSQDYGGRSV [L5T],2.12
8,DVPDPQSVCSCTCYRSQDYGGRSV [L5P],2.64
9,DVPDWQSVCSCTCYRSQDYGGRSV [L5W],1.71
10,DVPDEQSVCSCTCYRSQDYGGRSV [L5E],3.6
11,DVPDAQSVCSCTCYRSQDYGGRSV [L5A],1.63
12,DVPDCQSVCSCTCYRSQDYGGRSV [L5C],1.83
13,DVPDMQSVCSCTCYRSQDYGGRSV [L5M],1.79
14,DVPDYQSVCSCTCYRSQDYGGRSV [L5Y],1.71
15,DVPDIQSVCSCTCYRSQDYGGRSV [L5I],2.54
16,DVPDNQSVCSCTCYRSQDYGGRSV [L5N],2.19
17,DVPLLQSVCSCTCYRSQDYGGRSV [D4L],1.75
18,DVPYLQSVCSCTCYRSQDYGGRSV [D4Y],2.86
19,DVPSLQSVCSCTCYRSQDYGGRSV [D4S],1.86
20,DVPELQSVCSCTCYRSQDYGGRSV [D4E],2.06
21,DVPPLQSVCSCTCYRSQDYGGRSV [D4P],2.05
22,DVPNLQSVCSCTCYRSQDYGGRSV [D4N],2.07

# Source: the supplement of paper PMC10567573
